{"source": "the DeepSol protein solubility set", "data": [{"assay": "soluble on expression in E. coli; label from the status in PepcDB or PDB records", "values": [{"sequence": "GHEIKDIREDTMHAEFNALRAQVAINDGNPDEAERLAKLALEELPPGWFYSRIVATSVLGEVLHCKGELTRSLALMQQTEQMARQHDVWHYALWSLIQQSEILFAQGFLQTAWETQEKAFQLINEQHLEQLPMHEFLVRIRAQLLWAWARLDEAEASARSGIEVLSSYQPQQQLQCLAMLIQCSLARGDLDNARSQLNRLENLLGNGKYHSDWISNANKVRVIYWQMTGDKAAAANWLRHTAKPEFANNHFLQGQWRNIARAQILLGEFEPAEIVLEELNENARSLRLMSDLNRNLLLLNQLYWQAGRKSDAQRVLLDALKLANRTGFISHFVIEGEAMAQQLRQLIQLNTLPELEQHRAQRILREINQHHGA", "soluble on expression in E. coli": "soluble"}, {"sequence": "GHHHHHHHHHHSSGHIEGRHNMPVVIKTEGPAWTPLEPKLITRLADTVRTKGLRSPITMAEVEALMSSPLLPHDVTNLMRVILGPAPYALWMDAWGVQLQTVIAAATRDPRHPANGQGRGERTNLDRLKGLADGMVGNPQGQAALLRPGELVAITASALQAFREVARLAEPAGPWADITQGPSESFVDFANRLIKAVEGSDLPPSARAPVIIDCFRQKSQPDIQQLIRAAPSTLTTPGEIIKYVLDRQKIAPLTDQGIAAAM", "soluble on expression in E. coli": "soluble"}, {"sequence": "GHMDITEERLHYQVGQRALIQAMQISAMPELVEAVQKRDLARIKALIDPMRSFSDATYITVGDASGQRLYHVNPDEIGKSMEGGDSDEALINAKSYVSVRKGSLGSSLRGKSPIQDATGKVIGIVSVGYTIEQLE", "soluble on expression in E. coli": "soluble"}, {"sequence": "GHMLVMRPAQAADLPQVQRLAADSPVGVTSLPDDAERLRDKILASEASFAAEVSYNGEESYFFVLEDSASGELVGCSAIVASAGFSEPFYSFRNETFVHASRSLSIHNKIHVLSLCHDLTGNSLLTSFYVQRDLVQSVYAELNSRGRLLFMASHPERFADAVVVEIVGYSDEQGESPFWNAVGRNFFDLNYIEAEKLSGLKSRTFLAELMPHYPIYVPLLPDAAQESMGQVHPRAQITFDILMREGFETDNYIDIFDGGPTLHARTSGIRSIAQSRVVPVKIGEAPKSGRPYLVTNGQLQDFRAVVLDLDWAPGKPVALSVEAAEALGVGEGASVRLVAVGS", "soluble on expression in E. coli": "soluble"}, {"sequence": "GHMNMSQSQEIVLQPRSIVVPGELLAEGEFQIPWSPYILKINSKYYSTVVGLFDVKDTQFEVIPLEGSFYYPKINDIVIGLVEDVEIYGWVVDIKAPYKAYLPASNLLGRSINVGEDLRRYLDVGDYVIARIENFDRSIDPVLSVKGKDLGRVSNGIVIDIMPVKVPRVIGKNKSMYETLTSKSGCSIFVANNGRIWATCPSRFSEEILIEAIRKIENESHIKGLTDRIKQFIEEKLGERNASSGETKTNS", "soluble on expression in E. coli": "soluble"}, {"sequence": "GHMSETYDFLFKFLVIGNAGTGKSCLLHQFIEKKFKDDSNHTIGVEFGSKIINVGGKYVKLQIWDTAGQERFRSVTRSYYRGAAGALLVYDITSRETYNALTNWLTDARMLASQNIVIILCGNKKDLDADREVTFLEASRFAQENELMFLETSALTGENVEEAFVQCARKILNKIESGELDPERMG", "soluble on expression in E. coli": "soluble"}, {"sequence": "GHMSVYHHILLAVDFSSEDSQVVQKVRNLASQIGARLSLIHVLDNIPMPDTPYGTAIPLDTETTYDAMLDVEKQKLSQIGNTLGIDPAHRWLVWGEPREEIIRIAEQENVDLIVVGSHGRHGLALLLGSTANSVLHYAKCDVLAVRLRDD", "soluble on expression in E. coli": "soluble"}, {"sequence": "GIDPFTKMGGDRRPITILTSDLRGFTSTSEGLNPEEVVKVLNIYFGKMADVITHHGGTIDEFMGDGILVLFGAPTSQQDDALRAVACGVEMQLALREVNQQVTGLGLQPLEMGIGINTGEVVVGNIGSEKRTKYGVVGAQVNLTYRIESYTTGGQIFISSTTLEAAGDRVHVNGNRTVQPKGVKDPVVIWDVAGVGEPYNLSLAVEEQ", "soluble on expression in E. coli": "soluble"}, {"sequence": "GIIEAHCHVGIQEEKRGFEGNDCNEMTNPVTPYLRALDGINPMDSAFYTALTAGITGIMVGPGSANVVGGQWMFLKTYGRAIDKMVVLQPSAMKIAFGENPKANYDKKNMMPSTRIAIAAMLREELFEAQQYYEKRKNAEKSGDSFNKEFRKECWVPVFDKKIPLKAHVHRADDILTAIRIAKEFNLNLTLDHCTEGHLVAKEIKESGFPAIVGPTLTSRNKIETQYADFKTAGILHNEGVKVAITTDHPVTRIQDLLICAGLAAKEGLGIEEGLKAITINPAEICNVANRVGSIEVNKDADIAIFDGNPMETFTKTMYTIINGEIVY", "soluble on expression in E. coli": "not soluble"}, {"sequence": "GIPRNSSTGAKTAKSDKLKVVATNSIIADMTKAIAGDKIDLHSIVPIGQDPHEYEPLPEDAEKTSNADVIFYNGINLEDGGQAWFTKLVKNAQKTKNKDYFAVSDGIDVIYLEGASEKGKEDPHAWLNLENGIIYSKNIAKQLIAKDPKNKETYEKNLKAYVAKLEKLDKEAKSKFDAIAENKKLIVTSEGCFKYFSKAYGVPSAYIWEINTEEEGTPDQISSLIEKLKVIKPSALFVESSVDRRPMETVSKDSGIPIYSEIFTDSIAKKGKPGDSYYAMMKWNLDKISEGLAK", "soluble on expression in E. coli": "soluble"}, {"sequence": "GKLHEPYEIIVIDVPSEYQGNVTQLLATRKGLMQSMSTTPGSDWIRMEFRIPARGLIGFRTQFMTETRGTGIANSYSDGMDVWAGEIKGRAHGSLVADRSGQITAYALTQLADRGSFFVEPGTETYEGVV", "soluble on expression in E. coli": "not soluble"}, {"sequence": "GLDTIPTTYVDAGSVFGKTGDAEKVLNGGWNYLMETFNSYANPGYGAMLRANDAMGSDVVLNSKYGFRTHNEFSAIYGKGGTNTLSWLLAYRVINDCNGVLDNIDAAEGTQADRNRIKGQALALRGFLYLHLASCYSFAIDKDPDAVCAPIYTQSTDETIAAEGKPASSVSEVYAQSINDLEEALELIPETYVRDAKHKIDNEVVLGILSRACLYARQWEKAKTYSDKLLAKDNYLMTESEYKAGFNSVDNKEWIWGHAQTNDQSNASYQFHYLDTTTKGSYYYSFNVDPYFRDLFEDGDYRKEMLFWATDPGADVESAAYVWMRNSKFRFRDIENQLGDIVLMRVAEIYLINAEAKAHLNDPDAINKLNDLKTARGAKTIHTNLSQQDLLETIWLERRKELWGEGFSLIDIIRNQQTVVRNAYPEGPIDYIYTDENGQTHTLKKKTQGHRFFNFPDKSAFCPNSKYYLYRITDSEELANKNLYKDHPKLSIYTK", "soluble on expression in E. coli": "soluble"}, {"sequence": "GLESFSLTSHEKKFGVNIEFSDVNFSYPKQTNHRTLKSINFFIPSGTTCALVGHTGSGKSTIAKLLYRFYDAEGDIKIGGKNVNKYNRNSIRSIIGIVPQDTILFNETIKYNILYGKLDATDEEVIKATKSAQLYDFIEALPKKWDTIVGNKGMKLSGGERQRIAIARCLLKDPKIVIFDEATSSLDSKTEYLFQKAVEDLRKNRTLIIIAHRLSTISSAESIILLNKGKIVEKGTHKDLLKLNGEYAEMWNMQSGGNDI", "soluble on expression in E. coli": "soluble"}, {"sequence": "GLGGEPVIVYADRGRSVIAAVEGRVEDLVRGDMIVVQADSNGEEVVYIASSPTEPPEVYRFKGGDVERVSSINRWVVEEFRLYKPRRVEVEAEGEVVEGWYIEPEGEGRKPLILFIHGGPKGMYGYGFYGEMQLFASEGFTVAYANPRGSDGYEEEFADIRGRYGDTDYKQLMKFLDAVVEGSDVDEGKMAVTGISYGGYMTNVIVTKTSRFRAAVSENGIADWIADFWAADIGYWFDPDQIGGTPLDNLEEYVKRSPAFHAKNVNTPVMLIHSMEDYRCFIDQALAMHTALKVNGKESFLVVFTKGSHGHSILASPRHRRKRLELKLKWIKEKLG", "soluble on expression in E. coli": "not soluble"}, {"sequence": "GLPDSAFEHDGQLTKRDVRAITLARLAPVPGELLWDVGAGCGSIGIEWMRAHPTCRAMAIEADEGRQQLIEFNRDALGVPGLQLVRGSAPQALSGLERPDAIFIGGGVTRIGVLETCWEQLRSGGRLVANAVTLQSEAALMAWRERHGGELTRIHVAHAQPLGEFDTWRQALPITLLDVVKP", "soluble on expression in E. coli": "not soluble"}, {"sequence": "GMADIDQASKTEMEAAAFRHLLRHLDEHKDVQNIDLMIQADFCRNCLAKWLMEAATEQGVELDYDGAREYVYGMPFAEWKTLYQKPASEAQLAAFEAKQAARKR", "soluble on expression in E. coli": "soluble"}, {"sequence": "GMAGAAHRLMEARMRRYDNKFARISDIDINQPESWRGRIFLTFDIDWAADFVLQDTIDLIEGAGVCATWFATHSTPLLENIRRNPLFELGVHPNFNPLLAGAHAEGVQEILDRTLELAPGCVSVRSHSLVQATSILNMFGERRLRYDCNILVPWDAGIVLQPWRHWTGDMVRVPYLWEDDVACLYDWEFDSTFDYWYQPDGINVLDFHPIHVYMNTESLRRYEDSREVHRNPVDLIRWRNTSAGSRTFLQSLLARNI", "soluble on expression in E. coli": "soluble"}]}]}
